Experimental findings from patent US20120282285A1 (RIGSHOSPITALET, published 2012) are described below.

Experiment [1] deals with T1, Ficolin-3 (human, UniProt O75636 24-299).
T1 construct: Serum Ficolin-3 in the co-precipitations, ELISA and gradient. rFicolin-3 on acetylated BSA in the C4 deposition assays; also called rFicolin-3; recombinant human Ficolin-3
The experiment in a line: 10-30% sucrose gradient of serum; fractions read by western blot. The method, then: (§1) Normal human serum was subjected to sucrose gradient separation. 0.75 ml serum was loaded onto 40 ml centrifugation columns consisting of 10-30% sucrose gradients buffered in 10 mM Tris, 145 mM NaCl, 3 mM CaCl₂ and human serum albumin at 30 μg/ml. The loaded columns were centrifuged at 150.000×g in vacuum for 24 hours at 4° C. in a L70 Beckmann ultracentrifuge with a SW28 rotor head. 1.5 ml fractions were collected from the bottom and analyzed by specific ELISA or immunoblotting for the following antigens: MAP-1, MASP-1, MASP-2, MASP-3, sMAP, MBL, Ficolin-2 and Ficolin-3. The peaks of the serum IgM (19S) and IgG (7S) were also assessed indicating the molecular […]. Additionally the fractions were analyzed for the capacity to activate exogenously applied C4. […] The C4 deposition was subsequently measured with polyclonal antibodies to C4c (Q 0369, Dako, Glostrup, Denmark).
(§2) In order to investigate the distribution of MAP-1 in relation to associated molecules and to examine how much appears non-associated we subjected normal human serum to density fractionation using a 10-30% sucrose gradient and ultracentrifugation. Subsequently the collected fractions were analyzed for MAP-1, MASP-3, MBL, Ficolin-2 and -3 by ELISA (FIG. 31A) and MAP-1, MASP-1, -2 and -3, sMAP, MBL, Ficolin-2 and -3 by western blotting (FIG. 31B). […]

The target of experiment [2] is T1, Ficolin-3. Put plainly: 10-30% sucrose gradient of serum; fractions read by ELISA and western blot. As to the method: as §1, §2
For orientation: An ELISA detects its analyte on a solid surface through an enzyme-linked reagent.

T1 sequence (O75636 24-299 limits assumed): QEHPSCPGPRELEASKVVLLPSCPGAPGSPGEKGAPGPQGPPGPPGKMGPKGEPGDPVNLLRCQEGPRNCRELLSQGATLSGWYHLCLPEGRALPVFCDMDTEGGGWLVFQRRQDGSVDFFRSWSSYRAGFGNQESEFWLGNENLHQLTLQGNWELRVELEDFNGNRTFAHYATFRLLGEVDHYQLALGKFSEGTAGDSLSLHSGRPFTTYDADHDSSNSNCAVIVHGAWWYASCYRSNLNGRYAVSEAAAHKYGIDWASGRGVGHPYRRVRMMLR

B1: small MBL-associated protein (sMAP) (other)
chain: TPLGPKWPEPVFGRLASPGFPGEYANDQERRWTLTAPPGYRLRLYFTHFDLELSHLCEYDFVKLSSGAKVLATLCGQESTDTERAPGKDTFYSLGSSLDITFRSDYSNEKPFTGFEAFYAAEDIDECQVAPGEAPTCDHHCHNHLGGFYCSCRAGYVLHRNKRTCSEQSL
notes: Serum protein in the sucrose gradient; also called MAp19; MBL-associated plasma protein of 19 kD
B1: in experiment [1], the binding result is “binds”.

B2: MBL-Associated Serine Protease-3 (MASP-3) (enzyme)
chain: HTVELNNMFGQIQSPGYPDSYPSDSEVTWNITVPDGFRIKLYFMHFNLESSYLCEYDYVKVETEDQVLATFCGRETTDTEQTPGQEVVLSPGSFMSITFRSDFSNEERFTGFDAHYMAVDVDECKEREDEELSCDHYCHNYIGGYYCSCRFGYILHTDNRTCRVECSDNLFTQRTGVITSPDFPNPYPKSSECLYTIELEEGFMVNLQFEDIFDIEDHPEVPCPYDYIKIKVGPKVLGPFCGEKAPEPISTQSHSVLILFHSDNSGENRGWRLSYRAAGNECPELQPPVHGKIEPSQAKYFFKDQVLVSCDTGYKVLKDNVEMDTFQIECLKDGTWSNKIPTCKIVDCRAPGELEHGLITFSTRNNLTTYKSEIKYSCQEPYYKMLNNNTGIYTCSAQGVWMNKVLGRSLPTCLPECGQPSRSLPSLVKRIIGGRNAEPGLFPWQALIVVEDTSRVPNDKWFGSGALLSASWILTAAHVLRSQRRDTTVIPVSKEHVTVYLGLHDVRDKSGAVNSSAARVVLHPDFNIQNYNHDIALVQLQEPVPLGPHVMPVCLPRLEPEGPAPHMLGLVAGWGISNPNVTVDEIISSGTRTLSDVLQYVKLPVVPHAECKTSYESRSGNYSVTENMFCAGYYEGGKDTCLGDSGGAFVIFDDLSQRWVVQGLVSWGGPEECGSKQVYGVYTKVSNYVDWVWEQMGLPQSVVEPQVER
notes: also called rMASP-3
Take B2: in experiment [2], the binding result is “binds”.
